From the supplement of paper PMC7125110
± gives the standard error. Variants at the floor of the assay were thinned out.

B1: glmS ribozyme (parent)
chain: AUAAAAGCGCCAGAACUACAGAAAUGUAGUUGACGAGGAGGAGGUUUAUCGAAUUUUCGGCGGAUGCCUCCAAA

Tests used:
glucosamine-6-phosphate [1] = variants of: B1; assay: self-cleavage kobs at 640 uM GlcN6P; higher = faster cleavage; RNA array; conditions: with glucosamine-6-phosphate
In short: (§1)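 Barcoded ribozyme variants on sequenced MiSeq chips were transcribed in situ by E. coli RNA polymerase and followed at 37 °C through a hybridised Cy3 probe. Glucosamine-6-phosphate at 40 μM to 10 mM in HEPES/KCl/Mg(OAc)2 buffer was flowed in, and tiles were imaged over ~14 h. Signals were normalised to baseline and to non-cleaving reference variants, and per-tile medians were fit to one- or two-exponential decays to give kobs. Weighted Michaelis–Menten fits across concentrations gave kcat and KM.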

glucosamine-6-phosphate [2] = variants of: B1; assay: self-cleavage kobs at 2500 uM GlcN6P; higher = faster cleavage; RNA array; conditions: with glucosamine-6-phosphate
In short: as §1

Variant	self-cleavage kobs at 640 uM GlcN6P (glucosamine-6-phosphate [1]) [s⁻¹]	self-cleavage kobs at 2500 uM GlcN6P (glucosamine-6-phosphate [2]) [s⁻¹]
AUAAAAGCGCUAGAACUACAGAAAUGUAGUUGACGAAGAGGAGGUUUAUCGAAUUUGCGGCGAAUGCCUCCAAA [C11U G37A U57G G63A]	< 1e-05	–
AUAAAAGCGCCAGAACUACAGAAAUGUAGUUGACGAGGAGGAGGUUUAUCGAAGCGUCCGCGGAUGCCGCCAAA [U54G U55C U56G G59C U69G]	0.000119 ± 4.3e-05	6.83e-05 ± 2.7e-05
AUAAAAGCGCCAGUACUACAGAAAUGUAGUUGACGAGGAGGAGGUUUAUCGAAUUUUAGGCGGAUGCCUACAAA [A14U C58A C70A]	7.42e-05 ± 2.4e-05	–
AUAAAAGCGCUAGAACUACAGAAAUGUAGUUGACGAGGAGGAGGUUUAUUGAAUUUUCGCCGGAUGCCUCCAAA [C11U C50U G60C]	< 1e-05	–
AUAAACGCGCCAGAACUACAGAAAUGUAGUUGACUAUCAGGAGGUUUAUCGAAUUUUCGGCGGAUGCCUCCAAA [A6C G35U G37U G38C]	< 1e-05	–
AUAAAAGCGCCAGAACUACAGAAAUGUAGUUGACGAGGAGGAGGUUUACCGGAUUUUCGGCGGACGCCUCCAAA [U49C A52G U65C]	< 1e-05	–
AUAAAAGCGCCAGAAUUACAGAAAUGUAGUUGACGAGGUGGAGGUUUUUCGAAUUUUCGGCGGAUGCCUCCAAA [C16U A39U A48U]	3.71e-05 ± 1.6e-05	7.54e-05 ± 1.5e-05
AUAAAAGCGCCCGAACUACAGAAAUGUAGUUGACGAGGAGAUGGUUUAUCCAAUUUUCGGCGGAUGCGUUCAAA [A12C G41A A42U G51C C68G C70U]	< 1e-05	–
AUAAAAGCGCCAGAACUACAGAAAUGUAGUUGAGGAGGAGGAGGUGUAUCGAAUUUUCGGCGGAAGCCUCCAAA [C34G U46G U65A]	< 1e-05	< 1e-05
AUAAAAGCGCCAGAACUACAGAAAUGUAGUUGACGAGGAGGAGGUUUAUCGAAUCUUCGGGCGAUGCCUCCAAA [U55C C61G G62C]	< 1e-05	–
AUAAAAGCGCCAGAGCUACAGAAAUGUAGUUGACGAGGAGGAGGUUUAACGAAUUUUAGGCGGAUGCCAUCAAA [A15G U49A C58A U69A C70U]	0.00014 ± 3.9e-05	–
AUAAAAGCCCCAGAAGUACAGAAAUGUAGUUGACGAGGAGGAGGUUUAUCGAAUUUUCGGCGGAUGCCUCCAAA [G9C C16G]	< 1e-05	< 1e-05
AUAAAAGCGCCAGAACUACAGAAAUGUAGUUGACGAUGUUGAGGUUUUUGGAAUUUUCGGCGGAUGACUCCAAA [G37U A39U G40U A48U C50G C67A]	< 1e-05	< 1e-05
AUAAAAGAGCCAGAACUACAGAAAUGUAGUUGGAGAGGAGGAGGUUUAUCGAAUUUUCGGCGGAUGCCUCCAAA [C8A A33G C34A]	< 1e-05	–
AUAAACGCGCCAGAACUACAGAAAUGUAGUUGCCGAGGAGGAGGUUUCUCGAAUUUUCGUCGGAUGCCUCCAAA [A6C A33C A48C G60U]	< 1e-05	–
AUAAAAGCGCCAUUACUACAGAAAUGUAGUUGACGAGGAGGAGCUUUAUCGGAUUUUGGGCGGAUGCCUCCAAA [G13U A14U G44C A52G C58G]	< 1e-05	–
AUAAAAGCGCUAGAACUACAGAAAUGUAGUUGACUAGGAGGAGGUUUAUCGAAUUUUCGGCGGAUGCGUACAAA [C11U G35U C68G C70A]	0.000984 ± 0.00032	–
AUAAAAGCGGCAGAACUACAGAAAUGUAGUUGACGAGGAUGAGGUUUAUCGAAUUUUCGGCGGAUGCCUCUAAA [C10G G40U C71U]	< 1e-05	< 1e-05
AUAAACGCGCCAGAACUACAGAAAUGUAGUUGAGGAGGAGGAGGUUUAUCGAAUUUUCGGUGGAUGCCUCCAAA [A6C C34G C61U]	< 1e-05	< 1e-05
AUAAAAGCGCCAGAACUACAGAAAUGUAGUUGACGGGGAGGAGGAUUACCGAAUUUUCGGCGGAUGCCUCCAAA [A36G U45A U49C]	< 1e-05	< 1e-05
AUAAAAGCGCCAGAACUACAGAAAUGUAGUUGACGGGGAGAAGGUUUAUCGAAUUUUCGGGGGAUGCCUCUAAA [A36G G41A C61G C71U]	< 1e-05	< 1e-05
AUAAAAGCUCCAGAACUACAGAAAUGUACUUGACGAGGAGGAGGUUUAUCGAAGUUUCGGCGGAUGCCACCAAA [G9U G29C U54G U69A]	< 1e-05	< 1e-05
AUAAAAGCUCCAGAACUACAGAAAUGUAGUUGAUGAGGGGGAGGUUUAUCGAAUUUUCGGCGGAUGCCUCCAAA [G9U C34U A39G]	< 1e-05	–
AUAAAAGCGCCAGAACUACAGAAAUGUAGUUGACAAUGAGGAGGUUUAUCGAAUUUUAGGCGGAUGCCUACAAA [G35A G37U C58A C70A]	0.000632 ± 0.00016	–
AUAAAAGCGCCAUAACUACAGAAAUGUAAUAGACGACGAGGAGGUUUAUCGAAUUUUCGGCGGAUGCCUCCAAA [G13U G29A U31A G37C]	< 1e-05	–
AUAAAAGCGCCAGAACUACAGAAAUGUAGUAGACGAUGAGGAGGUUAAUCGAACUUUCGGCGGAUGCCGCCAAA [U31A G37U U47A U54C U69G]	5.3e-05 ± 2e-05	–
AUAAAAGCGCCAGAACUACAGAAAUGUAGUUGACGAGGAGGAGGUUUAUCGAAGUUAGGGCGGAUGCAUCCAAA [U54G U57A C58G C68A]	0.000592 ± 0.00015	–
